Where a chain is given by its changes, count along the chain named. Each block holds one binder with its values, some of them ahead of it.
Legend:
[1] = molecular target: T1, rat GM-CSF (rat, UniProt P48750 18-144); assay: solution equilibrium titration (SET), Fab with rat GM-CSF (Peprotech) as analyte in solution
T1 construct: Bought recombinant protein; also called rat-GM-CSF (Peprotech); rat recombinant GM-CSF
T1 sequence (looked up): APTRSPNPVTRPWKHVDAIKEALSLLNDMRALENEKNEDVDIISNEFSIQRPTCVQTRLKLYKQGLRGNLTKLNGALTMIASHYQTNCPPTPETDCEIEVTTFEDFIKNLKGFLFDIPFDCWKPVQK

[2] = molecular target: T2, human GM-CSF (human, UniProt P04141 18-144); assay: cell-based or functional assay
[3] = molecular target: T2, human GM-CSF; assay: cell-based or functional assay; remark: listed apart in the source
[4] = molecular target: T1, rat GM-CSF; assay: SPR (Biacore 3000), Fab captured on anti-F(ab)2, rat GM-CSF as analyte
Procedure: (§1) This was performed in a capture set-up by surface plasmon resonance (Biacore 3000, Uppsala, Sweden).
(§2) CM5 chips (Biacore, Sweden) were coated with 5000-6000 RU anti-F(ab)₂ (Dianova, Affinipure F(ab)₂ Fragment Goat Anti-Human IgG, F(ab)₂ Fragment specific); 80 μg/ml 10 mM acetate buffer, pH4 on all 4 flow cells, using standard EDC-NHS amine coupling chemistry. […] After capturing of the specific Fab, buffer was injected, to determine the dissociation of anti-Fab/Fab interaction. In a following cycle, the analyte growth factor was injected (20 μl, flow rate 20 μl/min) at a concentration range between 15 and 2000 nM for the determination of the specific signal. Afterwards the achieved buffer sensogram was manually subtracted from the specific one. After each cycle, the flow cells were regenerated with 100 mM HCl (5 μl).

[5] = molecular target: T2, human GM-CSF; assay: solution equilibrium titration (SET, ECL/BioVeris), Fab with human GM-CSF (Leucomax) in solution
[6] = molecular target: T2, human GM-CSF; assay: SPR (Biacore), Fab over immobilized recombinant human GM-CSF (Peprotech), F1 chip; affinity estimated from off-rates
Procedure: A respective amount of HSA was immobilized on the reference flow cell. […] Fab was applied in concentration series of 6.3-200 nM at a flow rate of 20 μl/min.

[7] = molecular target: T2, human GM-CSF; assay: FACS receptor inhibition assay: inhibition of binding of 0.5 µg/ml biotinylated GM-CSF to GM-CSF receptor alpha on CHO-GMRa#11 cells
Procedure: (§3) All stainings were performed in round bottom 96-well culture plates (Nalge Nunc) with 1-5×10⁵ cells per well. […] Cells were then washed once with 150 μl FACS buffer/well and taken up in 100 μl phycoerythrin-labeled streptavidin (BD Biosciences Pharmingen) which has been diluted 1:400 in FACS buffer. […] IC₅₀ values were determined from the dose response curves obtained using GraphPad Prism v3.03 software applying a non-linear regression curve fit.
(§4) IC₅₀ values were determined from the dose response curves obtained using GraphPad Prism v3.03 software applying a non-linear regression curve fit.

[8] = molecular target: T2, human GM-CSF; assay: FACS receptor inhibition assay: antibody pre-incubated with 0.5 µg/ml biotinylated GM-CSF, binding to GM-CSF receptor alpha on CHO-GMRa#11 cells
Procedure: as §3, §4

[9] = molecular target: macaca mulatta (rhesus) GM-CSF (Macaca mulatta (rhesus)); assay: cell-based or functional assay
[10] = molecular target: T1, rat GM-CSF; assay: solution equilibrium titration (SET), IgG1 with rat GM-CSF (Peprotech) as analyte in solution
[11] = molecular target: T2, human GM-CSF; assay: cell-based or functional assay; remark: listed apart in the source
[12] = molecular target: T1, rat GM-CSF; assay: SPR (Biacore 3000), Fab captured on anti-F(ab)2, cytokine as analyte
Procedure: as §1, §2

[13] = molecular target: T3, mouse GM-CSF (mouse, UniProt P01587 18-141); assay: as above
T3 construct: Bought recombinant protein
T3 sequence (looked up): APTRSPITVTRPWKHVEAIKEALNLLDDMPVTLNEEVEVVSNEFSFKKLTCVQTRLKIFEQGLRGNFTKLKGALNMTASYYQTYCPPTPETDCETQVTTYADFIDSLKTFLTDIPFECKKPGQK
Procedure: as §1, §2

[14] = molecular target: T4, human IL-3 (human, UniProt P08700 20-152); assay: as above
T4 construct: Bought recombinant protein
T4 sequence (looked up): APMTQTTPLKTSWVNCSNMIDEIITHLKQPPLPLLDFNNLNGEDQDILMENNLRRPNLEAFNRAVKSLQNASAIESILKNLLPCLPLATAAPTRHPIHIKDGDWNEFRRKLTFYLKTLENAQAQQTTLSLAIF
Procedure: as §1, §2

[15] = molecular target: T5, human IL-4 (human, UniProt P05112 25-153); assay: as above
T5 construct: Bought recombinant protein
T5 sequence (looked up): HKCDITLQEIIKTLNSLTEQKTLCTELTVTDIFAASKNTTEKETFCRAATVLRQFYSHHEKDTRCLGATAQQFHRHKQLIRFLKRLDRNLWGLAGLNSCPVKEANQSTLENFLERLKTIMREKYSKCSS
Procedure: as §1, §2

[16] = molecular target: T6, human IL-5 (human, UniProt P05113 20-134); assay: as above
T6 construct: Bought recombinant protein
T6 sequence (looked up): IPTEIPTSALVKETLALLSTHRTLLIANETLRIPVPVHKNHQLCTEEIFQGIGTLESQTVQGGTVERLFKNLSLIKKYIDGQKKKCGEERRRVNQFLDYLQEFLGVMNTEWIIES
Procedure: as §1, §2

[17] = molecular target: T7, human IL-13 (human, UniProt P35225 35-146); assay: as above
T7 construct: Bought recombinant protein
Procedure: as §1, §2

[18] = molecular target: T8, human M-CSF (human, UniProt P09603 33-190, limits assumed); assay: as above
T8 construct: Bought recombinant protein
T8 sequence (looked up): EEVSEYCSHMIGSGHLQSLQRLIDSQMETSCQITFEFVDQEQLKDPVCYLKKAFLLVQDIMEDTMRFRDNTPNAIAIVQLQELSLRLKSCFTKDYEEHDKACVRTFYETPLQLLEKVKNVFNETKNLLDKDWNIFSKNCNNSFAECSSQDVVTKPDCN
Procedure: as §1, §2

T2 sequence (P04141 18-144): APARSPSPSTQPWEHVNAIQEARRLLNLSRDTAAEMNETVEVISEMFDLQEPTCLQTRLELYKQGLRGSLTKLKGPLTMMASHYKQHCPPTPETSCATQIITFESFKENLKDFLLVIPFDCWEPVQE
T7 sequence (P35225 35-146 limits assumed): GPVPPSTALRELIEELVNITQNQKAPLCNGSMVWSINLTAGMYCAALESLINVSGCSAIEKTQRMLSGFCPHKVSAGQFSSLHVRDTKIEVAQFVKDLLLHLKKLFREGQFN

B2: MOR03929 Fab (Fab, V domains shown)
VH: QVQLVESGGGLVQPGGSLRLSCAASGFTFSSYWMNWVRQAPGKGLEWVSGISYSGSETYYADSVKGRFTISRDNSKNTLYLQMNSLRAEDTAVYYCARGFGTDFWGQGTLVTVSS
VL: DIELTQPPSVSVAPGQTARISCSGDSIGKKYAYWYQQKPGQAPVLVIYKKRPSGIPERFSGSNSGNTATLTISGTQAEDEADYYCSSWDSTGLVFGGGTKLTVLG
notes: Parental HuCAL GOLD Fab with C-terminal FLAG and 6xHis tags
inhibition of TF1 cell proliferation at 2 µM Fab, human GM-CSF (Leucomax) 0.25 ng/ml [2]: > 50%
IC50 (pM) in TF-1 proliferation assay, human GM-CSF 0.25 ng/ml [3]: > 200000 pM
binding result [4]: binds
Kd [5]: 2 nM
Kd [6]: 4.26 nM
% inhibition at 5 µg/ml antibody [7]: ~60%
IC50 [8]: 35 nM

B4: MOR03682 Fab (Fab, V domains shown)
VH: QVQLVQSGAEVKKPGSSVKVSCKASGGTFNSFLISWVRQAPGQGLEWMGGIIPIFGTANYAQKFQGRVTITADESTSTAYMELSSLRSEDTAVYYCARKFISDSWGQGTLVTVSS
VL: DIQMTQSPSSLSASVGDRVTITCRASQTINNYLNWYQQKPGKAPKLLIYTASNLQSGVPSRFSGSGSGTDFTLTISSLQPEDFAVYYCQQYSGSPMTFGQGTKVEIKR
notes: as for B2
inhibition of TF1 cell proliferation at 2 µM Fab, human GM-CSF (Leucomax) 0.25 ng/ml [2]: > 50%
IC50 (pM) in TF-1 proliferation assay, human GM-CSF [11]: > 200000 pM
binding result [12]: no binding (tested: analyte 15 to 2000 nM)
binding result [13]: no binding (tested: analyte 15 to 2000 nM)
binding result [14]: no binding (tested: analyte 15 to 2000 nM)
binding result [15]: no binding (tested: analyte 15 to 2000 nM)
binding result [16]: no binding (tested: analyte 15 to 2000 nM)
binding result [17]: no binding (tested: analyte 15 to 2000 nM)
binding result [18]: no binding (tested: analyte 15 to 2000 nM)
Kd [5]: 11.4 nM

B5: MOR03684 Fab (Fab, V domains shown)
VH: QVQLVESGGGLVQPGGSLRLSCAASGFTFSSHWMSWVRQAPGKGLEWVSNGIFSDGSATYYADSVKGRFTISRDNSKNTLYLQMNSLRAEDTAVYYCARFQGYGGGFDYWGQGTLVTVSS
VL: DIELTQPPSVSVAPGQTARISCSGDNLPGKYVHWYQQKPGQAPVLVIYYDSNRPSGIPERFSGSNSGNTATLTISGTQAEDEADYYCQSRTQTTIVFGGGTKLTVLG
notes: carries two C-terminal tags (FLAG and 6xHis); also called antibody no
inhibition of TF1 cell proliferation at 2 µM Fab, human GM-CSF (Leucomax) 0.25 ng/ml [2]: > 50%
IC50 (pM) in TF-1 proliferation assay, human GM-CSF 0.25 ng/ml [3]: > 200000 pM
binding result [12]: no binding (tested: analyte 15 to 2000 nM)
binding result [13]: no binding (tested: analyte 15 to 2000 nM)
binding result [14]: no binding (tested: analyte 15 to 2000 nM)
binding result [15]: no binding (tested: analyte 15 to 2000 nM)
binding result [16]: no binding (tested: analyte 15 to 2000 nM)
binding result [17]: no binding (tested: analyte 15 to 2000 nM)
binding result [18]: no binding (tested: analyte 15 to 2000 nM)
Kd [5]: 16 nM
Kd [6]: 6.42 nM
% inhibition at 5 µg/ml antibody [7]: ~25%
IC50 [8]: > 400 nM

The next lines start with the values.

Kd [1]: 1 nM
B1: MOR04357 Fab (Fab, V domains shown)
VH: QVQLVESGGGLVQPGGSLRLSCAASGFTFSSYWMNWVRQAPGKGLEWVSGIENKYAGGATYYAASVKGRFTISRDNSKNTLYLQMNSLRAEDTAVYYCARGFGTDFWGQGTLVTVSS
VL: B2 VL with S87A, D89G, S90D, T91K, L93M
notes: X-cloned Fab (VH of MOR04252 x VL of MOR04302) with FLAG and 6xHis tags; also called Fab MOR04357

IC50 (pM) in TF-1 proliferation assay, macaca GM-CSF (HEK293) [9]: 15 pM
Kd [10]: 0.13 nM
B3: MOR04357 IgG1 (antibody, V domains shown)
VH: B1 VH
VL: B2 VL with S87A, D89G, S90D, T91K, L93M
notes: expressed in HKB11 cells; also called IgG1 MOR04357

— patent US20090053213A1 (MorphoSys, published 2009)
